Experimental data from patent publication US20090124570A1, “Methods and Compositions for Facilitating Tissue Repair and Diagnosing, Preventing, and Treating Fibrosis” (University of Maryland, Baltimore, priority 2007, published 2009).
Entries after “also recorded” stand apart in the source; their conditions may differ.

Assays:
[1] = system: COL1A2 promoter; assay: Collagen promoter-CAT reporter construct in transfected fibroblasts; format: cell-based, human
Protocol: Production of collagen was measured in cell cultures utilizing the metabolic labeling of collagen with ^14C-proline as described by Luzina. I. G. Luzina et al. (2006) Am J Respir Cell Mol Biol. 35:298-305; I. G. Luzina et al. (2006) Arthritis Rheum. 54: 2643-2655. Briefly, fibroblast monolayers were pulsed with L-[U-^14C]-proline (Amersham Biosciences, Piscataway, N.J.) at 1 μCi/ml for the final 12 hours of incubation. Purified bacterial collagenase type III was purchased from Sigma Aldrich (St. Louis, Mo.). Fibroblasts were then ruptured by repeated freeze-thawing, and part of each sample digested with collagenase type III. The samples were pelleted with 20% TCA containing 0.1% L-proline, and then the pellets were resuspended and washed twice with 5% TCA and 95% ice-cold ethanol. The samples were assayed in a liquid scintillation counter in order to determine the amount of collagenase-digestible and non-digestible ^14C-labeled protein. Alternatively, collagen protein levels in cell culture supernatants were measured in Western blotting assays as described above. The activity of the COL1A2 promoter was measured in primary fibroblasts transfected with collagen promoter-chloramphenicol acetyltransferase (CAT) reporter constructs as described by Luzina. I. G. Luzina et al. (2006) Am J Respir Cell Mol Biol. 35:298-305. […]

[2] = system: primary pulmonary fibroblasts; conditions: as reported by Luzina et al. 2006; cited from earlier work
[3] = system: COL1A2 mRNA; assay: Real-time PCR of COL1A2 mRNA in fibroblasts; format: cell-based, human; conditions: BIGH3-treated vs control fibroblast cultures
Protocol: Total RNA purification, reverse transcription, and real-time PCR were performed using LightCycler (Roche, Indianapolis, Ind.), as previously described by Atamas. S. P. Atamas et al. (2003) Am J Respir Cell Mol Biol. 29:743-749. Quantification of internal control 18S ribosomal RNA was performed as reported previously by Luzina. I. G. Luzina et al. (2006) J Cell Physiol. 206:221-228. The PCR reaction mixture included the recommended components of the FastStart DNA Master Hybridization Probes Hot Start Reaction Mix (Roche, Indianapolis, Ind.). The fold difference in gene expression relative to 18S ribosomal RNA between treated and untreated cultures was calculated using the 2^−ΔΔCt method. I. G. Luzina et al. (2006) Arthritis Rheum. 54: 2643-2655. The primers and the hybridization probes for COL1A2 mRNA were designed and prepared by TIB Molbiol (Adelphia, N.J.). The primers for COL1A2 mRNA were: forward, 5′-GATGGTGAAGATGGTCCCACAGG-3′ (SEQ ID NO: 1) and reverse, 5′-GGTCGTCCGGGTTTTCCAGGGT-3′ (SEQ ID NO: 2). The hybridization probes were labeled with fluorescein at the 3′-terminus (3FL) of one probe and with LightCycler Red at the 5′-terminus (5LC) of the other probe. The probes were 3FL 5′-TTCCAAGGACCTGCTGGTGAGCCT-3′ (SEQ ID NO: 3) and 5LC 5′-TGAACCTGGTCAAACTGGTCCTGCAG-3′ (SEQ ID NO: 4). […]

[4] = system: Smad3/4, Sp1, AP1, Ets; assay: Transcription factor array, DNA binding of collagen promoter regulators in fibroblasts; format: cell-based, human; conditions: BIGH3-stimulated vs control fibroblasts, transcription factor arrays
Protocol: Further experiments were performed to determine whether the increase in collagen levels stimulated by BIGH3 was due to transcriptional upregulation of the collagen gene expression.
(§1) Nuclear extracts from BIGH3-activated and control fibroblast cultures were prepared using nuclear extraction kit from Active Motif (Carlsbad, Calif.) and adjusted for total protein content using Bio-Rad assays. DNA binding by 345 different transcription factors was evaluated using protein/DNA TranSignal™ system (Panomics, Redwood City, Calif.), following the manufacturer's recommendations.

[5] = system: MMP14; assay: Western blotting for MMP14 protein in primary fibroblasts; format: cell-based, human; conditions: fibroblasts with 300 ng/ml rhBIGH3 for 24 h or 48 h
Protocol: (§2) Preparation of cell lysates, immunoprecipitation of BIGH3 protein, normalization of protein concentration in the samples with BioRad assays, electrophoretic separation and Western blotting were performed as previously described by Atamas. S. P. Atamas et al. (2003) Am J Respir Cell Mol Biol. 29:743-749. Goat antibodies for BIGH3 were purchased from R&D Systems (Minneapolis, Minn.). Goat antibodies for MMP14 were purchased from Santa-Cruz Biotechnology (Santa Cruz, Calif.). Western blotting assays for collagen were performed using rabbit affinity purified anti-collagen type I antibody (Rockland, Gilbertsville, Pa.).
Experiments were performed to determine whether BIGH3 upregulates collagen levels in fibroblast cultures by attenuating collagen turnover. To address such a possibility, experiments were performed in which primary fibroblasts were incubated for 6 h with or without 300 ng/ml BIGH3. The expression levels of 84 genes related to connective tissue biology were analyzed using reverse transcriptase—real time PCR approach (RT^2 Profiler™ SuperArray, Frederick, Md.). […] These experiments were repeated on three independent occasions with primary fibroblast cultures from different donors, with consistent results. MMP14 is a critical factor for collagen turnover by fibroblasts. H. Lee et al. (2006) Mol Biol Cell. 17:4812-4826. […]

[6] = system: PU.1; assay: Transcription factor array, DNA binding by PU.1 in fibroblasts; format: cell-based, human; conditions: fibroblasts stimulated with 300 ng/ml rhBIGH3
Protocol: as §1

[7] = system: matrix metalloproteinase 2 (MMP2); assay: MMP2 levels in primary fibroblast cultures; format: cell-based, human; conditions: primary fibroblast cultures stimulated with recombinant BIGH3
[8] = system: p53; assay: Transcription factor array, DNA binding by p53 in fibroblasts; format: cell-based, human; conditions: fibroblasts stimulated with 300 ng/ml rhBIGH3
Protocol: as §1

[9] = system: primary pulmonary fibroblasts; assay: Collagen production in primary fibroblast cultures (14C-proline incorporation, Western blotting); format: cell-based, human; conditions: primary fibroblasts stimulated with rhBIGH3, various doses and times, 14C-proline incorporation and Western blotting
Protocol: as §2
Production of collagen was measured in cell cultures utilizing the metabolic labeling of collagen with ^14C-proline as described by Luzina. I. G. Luzina et al. (2006) Am J Respir Cell Mol Biol. 35:298-305; I. G. Luzina et al. (2006) Arthritis Rheum. 54: 2643-2655. […] Alternatively, collagen protein levels in cell culture supernatants were measured in Western blotting assays as described above. The activity of the COL1A2 promoter was measured in primary fibroblasts transfected with collagen promoter-chloramphenicol acetyltransferase (CAT) reporter constructs as described by Luzina. […]
To test this possibility, fibroblast cultures were incubated for various times with various doses of recombinant human BIGH3 (rhBIGH3), and the levels of collagen accumulation were measured. […]

Molecule | response of collagen promoter-CAT reporter construct [1] | concentration of active TGF-β required for upregulation of collagen production [2] | collagen (COL1A2) mRNA steady-state levels [3] | DNA binding activity of Smad3/4, Sp1, AP1, Ets [4] | MMP14 protein levels [5] | DNA binding by PU.1 [6] | DNA binding by PU.1 ([6]; listed as BIGH3) | MMP2 levels [7] | DNA binding by p53 [8] | DNA binding by p53 ([8]; listed as BIGH3) | collagen protein levels [9] | collagen protein levels ([9]; listed as recombinant BIGH3)
TGF-β [reference compound] | responsive | at least 500 pg/ml | – | – | – | – | – | – | – | – | – | –
rhBIGH3: recombinant human BIGH3 (TGFBI, keratoepithelin), a 68 kDa extracellular matrix protein (protein, UniProt Q15582 24-683, looked up) Transforming growth …: GPAKSPYQLVLQHSRLRGRQHGPNVCAVQKVIGTNRKYFTNCKQWYQRKICGKSTVISYECCPGYEKVPGEKGCPAALPLSNLYETLGVVGSTTTQLYTDRTEKLRPEMEGPGSFTIFAPSNEAWASLPAEVLDSLVSNVNIELLNALRYHMVGRRVLTDELKHGMTLTSMYQNSNIQIHHYPNGIVTVNCARLLKADHHATNGVVHLIDKVISTITNNIQQIIEIEDTFETLRAAVAASGLNTMLEGNGQYTLLAPTNEAFEKIPSETLNRILGDPEALRDLLNNHILKSAMCAEAIVAGLSVETLEGTTLEVGCSGDMLTINGKAIISNKDILATNGVIHYIDELLIPDSAKTLFELAAESDVSTAIDLFRQAGLGNHLSGSERLTLLAPLNSVFKDGTPPIDAHTRNLLRNHIIKDQLASKYLYHGQTLETLGGKKLRVFVYRNSLCIENSCIAAHDKRGRYGTLFTMDRVLTPPMGTVMDVLKGDNRFSMLVAAIQSAGLTETLNREGVYTVFAPTNEAFRALPPRERSRLLGDAKELANILKYHIGDEILVSGGIGALVRLKSLQGDKLEVSLKNNVVSVNKEPVAEPDIMATNGVVHVITNVLQPPANRPQERGDELADSALEIFKQASAFSRASQRSVRLAPVYQKLLERMKH | no differences were observed; also recorded: non-responsive | – | no differences in steady-state levels; also recorded: did not stimulate an increase in collagen mRNA | no differences were detected; also recorded: no increase in the activity | decreased significantly | significant upregulation | increased | downregulation | downregulation | decreased | directly regulated collagen production; also recorded: Increases in collagen protein levels | upregulation of collagen protein
